PMC8244335 (Current Research in Structural Biology, 2019)
Several values for one entry are separate records, joined by “and”; a condition that tells them apart may be missing. Equal values may be shown once.

Molecular target: the molecule itself
Assay: AUC

B1: catalytically inactive S679A mutant of Escherichia coli (strain K12) LonA protease, full length (enzyme, E. coli (strain K12), UniProt P0A9M0 1-784, looked up)
chain: MNPERSERIEIPVLPLRDVVVYPHMVIPLFVGREKSIRCLEAAMDHDKKIMLVAQKEASTDEPGVNDLFTVGTVASILQMLKLPDGTVKVLVEGLQRARISALSDNGEHFSAKAEYLESPTIDEREQEVLVRTAISQFEGYIKLNKKIPPEVLTSLNSIDDPARLADTIAAHMPLKLADKQSVLEMSDVNERLEYLMAMMESEIDLLQVEKRIRNRVKKQMEKSQREYYLNEQMKAIQKELGEMDDAPDENEALKRKIDAAKMPKEAKEKAEAELQKLKMMSPMSAEATVVRGYIDWMVQVPWNARSKVKKDLRQAQEILDTDHYGLERVKDRILEYLAVQSRVNKIKGPILCLVGPPGVGKTSLGQSIAKATGRKYVRMALGGVRDEAEIRGHRRTYIGSMPGKLIQKMAKVGVKNPLFLLDEIDKMSSDMRGDPASALLEVLDPEQNVAFSDHYLEVDYDLSDVMFVATSNSMNIPAPLLDRMEVIRLSGYTEDEKLNIAKRHLLPKQIERNALKKGELTVDDSAIIGIIRYYTREAGVRGLEREISKLCRKAVKQLLLDKSLKHIEINGDNLHDYLGVQRFDYGRADNENRVGQVTGLAWTEVGGDLLTIETACVPGKGKLTYTGSLGEVMQESIQAALTVVRARAEKLGINPDFYEKRDIHVHVPEGATPKDGPAAGIAMCTALVSCLTGNPVRADVAMTGEITLRGQVLPIGGLKEKLLAAHRGGIKTVLIPFENKRDLEEIPDNVIADLDIHPVKRIEEVLTLALQNEPSGMQVVTAK
stoichiometry N: 12 and 6
